Numbering of substitutions follows the chain as printed.
B1: M76-G02 (Fab, V domains shown)
VH: EVQLLESGGGLVQPGGSLRLSCAASGFTFSLYAMWWVRQAPGKGLEWVSYISSSGGFTSYADSVKGRFTISRDNSKNTLYLQMNSLRAEDTAVYYCARYRVGVAATDYWGQGTLVTVSS
VL: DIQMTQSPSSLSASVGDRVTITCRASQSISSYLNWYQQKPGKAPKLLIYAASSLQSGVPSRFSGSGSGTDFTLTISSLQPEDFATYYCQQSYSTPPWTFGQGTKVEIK
notes: HC as printed runs into CH1
B2: M76-H02 (Fab, V domains shown)
VH: EVQLLESGGGLVQPGGSLRLSCAASGFTFSMYWMQWVRQAPGKGLEWVSYIYPSGGPTKYADSVKGRFTISRDNSKNTLYLQMNSLRAEDTAVYYCARPSGSYGDAFDIWGQGTMVTVSS
VL: DIQMTQSPSSLSASEGDRVTITCRASQDISVYLNWYQMKSGKAPKLLIYGGASLQSGVPARFSGSGYGTDFTLTITDLRPEDFATYYCQQSYSLPFTFGGGTKVEIK
notes: HC as printed runs into CH1
B3: M29-D10 (Fab, V domains shown)
VH: EVQLLESGGGLVQPGGSLRLSCAASGFTFSWYPMYWVRQAPGKGLEWVSSIGSSGGPTPYADSVKGRFTISRDNSKNTLYLQMNSLRAEDTAVYYCARWADYGGSLDYWGQGTLVTVSS
VL: DIQMTQSPSSLSASVGDTVSITCRASQSITIYLNWYQHKPGKAPNLLIYGASNLHSGVPSRFSGSGSGTDFTLTISSLQPEDFATYYCQQSYDTPLTFGGGTKVEIK
notes: HC as printed runs into CH1
B4: M27-H10 (Fab, V domains shown)
VH: EVQLLESGGGLVQPGGSLRLSCAASGFTFSAYQMAWVRQAPGKGLEWVSVIYSSGGYTDYADSVKGRFTISRDNSKNTLYLQMNSLRAEDTAVYYCARHNWNDGAFDIWGQGTMVTVSS
VL: DIQMTQSPSSLSASVGDRVTITCRASQSISNYLNWYQQKPGKAPKFLIYAASSLQSGVPSRFSGSGSGTDFTLSISSLQPEDFATYYCQQSYSTPQTFGQGTKVEMK
notes: HC as printed runs into CH1
B5: M28-F01 (Fab, V domains shown)
VH: EVQLLESGGGLVQPGGSLRLSCAASGFTFSVYLMHWVRQAPGKGLEWVSGISPSGGYTQYADSVKGRFTISRDNSKNTLYLQMNSLRAEDTAVYYCARPGGLDAFDIWGQGTMVTVSS
VL: B4 VL with S30N, N31T, F46V, Y49H, S53T, Q55E, S74T, Q96P, M106I
notes: HC as printed runs into CH1
B6: M28-E01 (Fab, V domains shown)
VH: EVQLLESGGGLVQPGGSLRLSCAASGFTFSSYPMGWVRQAPGKGLEWVSRISSSGGMTIYADSVKGRFTISRDNSKNTLYLQMNSLRAEDTAVYYCARDDWNVGMDVWGQGTTVTVSS
VL: B4 VL with N31S, F46L, R61K, F71Y, S74T, S91T, S93T, Q96W, M106I
notes: HC as printed runs into CH1
B7: M76-G06 (Fab, V domains shown)
VH: EVQLLESGGGLVQPGGSLRLSCAASGFTFSGYIMHWVRQAPGKGLEWVSWIYPSGGWTEYADSVKGRFTISRDNSKNTLYLQMNSLRAEDTAVYYCARDAPGVGAIDYWGQGTLVTVSS
VL: B4 VL with G16R, N31T, K42E, F46L, I48V, Y49F, Q96H, T102A, M106I
notes: HC as printed runs into CH1
B8: M77-C07 (Fab, V domains shown)
VH: B7 VH with G31L, H35G, W50G, W57F, E59M, D99E, A100S, P101S, G104A, I106P
VL: B4 VL with S10T, S28N, N31S, F46L, S74T, Y87S, Q96R, M106I
notes: HC as printed runs into CH1
B9: M7-B04 (Fab, V domains shown)
VH: EVQLLESGGGLVQPGGSLRLSCAASGFTFSWYSMVWVRQAPGKGLEWVSSISPSGGLTNYADSVKGRFTISRDNSKNTLYLQMNSLRAEDTAVYYCARHTAARPFYYYYMDVWGKGTTVTVSS
VL: QSALTQPASVSGSPGQSITISCTGTNSDVGNYNLVSWYQQHPGEAPKLLIYEVNKRPSGVSNRFSGSKSGNTASLTISGLQAEDEADYLCCSYAGNRNFYVFGAGTKVTVL
notes: HC as printed runs into CH1
B10: M6-D09 (Fab, V domains shown)
VH: EVQLLESGGGLVQPGGSLRLSCAASGFTFSFYYMVWVRQAPGKGLEWVSVIYPSGGITVYADSVKGRFTISRDNSKNTLYLQMNSLRAEDTAVYYCARDKWAVMPPYYYYAMDVWGQGTTVTVSS
VL: DIQMTQSPSSLSASVGDRVTITCRASQSIRNYLNWYQQKPGKAPNLLIYAASTLQSGVPARFSGSGSGTDFTLTISSLQPEDFATYYCQQLSGYPHTFGQGTKLEIK
notes: HC as printed runs into CH1; also called M06-D09; 559A-M0006-D09
B11: M7-E07 (Fab, V domains shown)
VH: EVQLLESGGGLVQPGGSLRLSCAASGFTFSWYLMIWVRQAPGKGLEWVSYIYPSGGFTYYADSVKGRFTISRDNSKNTLYLQMNSLRAEDMAVYYCARTEGPLSWGYGMDVWGQGTTVTVSS
VL: not shown
notes: HC as printed runs into CH1
B12: M29-G08 (Fab, V domains shown)
VH: EVQLLESGGGLVQPGGSLRLSCAASGFTFSYYHMWWVRQAPGKGLEWVSGISPSGGFTFYADSVKGRFTISRDNSKNTLYLQMNSLRAEDTAVYYCARDYYYDSSGYSPLGYWGQGTLVTVSS
VL: DIQMTQSPATLSASPGETVTLSCRASQNIGNDVAWYRQRPGQAPRLLIHHASTRAYGIPARLRGSGSATEFTLTITSLEPEDFAIYYCQQFYDWPAHTFALGTRLEIKR
notes: HC as printed runs into CH1
B13: M29-G10 (Fab, V domains shown)
VH: EVQLLESGGGLVQPGGSLRLSCAASGFTFSFYKMIWVRQAPGKGLEWVSSISSSGGSTQYADSVKGRFTISRDNSKNTLYLQMNSLRAEDTAVYYCARDRVDLGYLDYWGQGTLVTVSS
VL: DIQMTQSPSSLSSSVGDSATITCRASQSISIYLNWYQQKPGKAPKILIYGASQLESGVPSRFSGSGSGTDFTLTVSGLQPEDFATYWCQQSYNVPYTFGQGTKLEIK
notes: HC as printed runs into CH1
B14: M28-C03 (Fab, V domains shown)
VH: EVQLLESGGGLVQPGGSLRLSCAASGFTFSYYQMGWVRQAPGKGLEWVSSIYPSGGMTDYADSVKGRFTISRDNSKNTLYLQMNSLRAEDTAVYYCTRGSPWGDDAFDIWGQGTMVTVSS
VL: DIQMTQSPSSLSASVGDRVTITCRASQSINFYLNWYQQKPGKAPKLLIYVASSLESGVPSRFSGSASGTEFTLTISSLQPEDFATYYCLQSYSAPYTFGQGTKVEIT
notes: HC as printed runs into CH1
B15: M76-F02 (Fab, V domains shown)
VH: B5 VH with V31L, L33D, H35N, Y57Q, Q59M, P99Q, G100P, G101M, L102I, D103S
VL: DIQMTQSPSSLSASVGDRVTITCRASQTIDNYLHWYQQKPGKAPKVLIHDASSLQSGVPPRFSGSGSGTDFTLTISSLQPEDFATYYCQQSYDTPQYTFGQGTKLEIK
notes: HC as printed runs into CH1
B16: M28-F07 (Fab, V domains shown)
VH: EVQLLESGGGLVQPGGSLRLSCAASGFTFSDYTMYWVRQAPGKGLEWVSSIVPSGGHTLYADSVKGRFTISRDNSKNTLYLQMNSLRAEDTAVYYCAKDHLSSWYGGFFDYWGQGTLVTVSS
VL: DIQMTQSPSSVSASVGDRVTITCRASQGISSWLAWYQQKPGKAPKLLIYATSGLQSGVPSRFSGSGSGTDFTLTISSLQPEDFATYYCQQAKSFPLTFGGGTRVEIK
notes: HC as printed runs into CH1
B17: M28-A01 (Fab, V domains shown)
VH: EVQLLESGGGLVQPGGSLRLSCAASGFTFSWYAMHWVRQAPGKGLEWVSGIYSSGGYTKYADSVKGRFTISRDNSKNTLYLQMNSLRAEDTAVYYCARDLSNGDDVFDIWGQGTMVTVSS
VL: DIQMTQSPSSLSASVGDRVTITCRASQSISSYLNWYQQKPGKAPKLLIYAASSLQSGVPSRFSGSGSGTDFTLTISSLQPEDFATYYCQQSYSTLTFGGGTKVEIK
notes: HC as printed runs into CH1
B18: M28-E11 (Fab, V domains shown)
VH: EVQLLESGGGLVQPGGSLRLSCAASGFTFSLYDMTWVRQAPGKGLEWVSGISSSGGVTIYADSVKGRFTISRDNSKNTLYLQMNSLRAEDTAVYYCARTYYYDSSGYADAFDIWGQGTMVTVSS
VL: DIQMTQSPSSVSASVGDRVTINCRASQDISNWLAWYQQKPGKAPNLLIYAASSLQTGAPSRFSGSGSGTDFTLTISSLQPEDFGTYVCQQSYSLPWTFGLGTKVEVR
notes: HC as printed runs into CH1
B19: M28-D12 (Fab, V domains shown)
VH: EVQLLESGGGLVQPGGSLRLSCAASGFTFSWYTMHWVRQAPGKGLEWVSVIYPSGGPTSYADSVKGRFTISRDNSKNTLYLQMNSLRAEDTATYYCARDGSGSYLGFDYWGQGTLVTVSS
VL: DIQMTQSPSSLSASVGDRVTITCRASQSIATYLNWYQQKPGRAPKLLIYAASSLQSGVPSRFVGGGSGSGTHFTLTISSLQPEDFATYYCQQSYSTRETFGQGTKVEIK
notes: HC as printed runs into CH1
B20: M29-C07 (Fab, V domains shown)
VH: EVQLLESGGGLVQPGGSLRLSCAASGFTFSGYDMMWVRQAPGKGLEWVSVISSSGGNTAYADSVKGRFTISRDNSKNTLYLQMNSLRAEDTAVYYCARESSGLYYFDYWGQGTLVTVSS
VL: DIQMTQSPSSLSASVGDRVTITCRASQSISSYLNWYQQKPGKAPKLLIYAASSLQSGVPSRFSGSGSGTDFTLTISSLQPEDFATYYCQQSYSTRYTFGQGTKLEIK
notes: HC as printed runs into CH1
B21: M74-A07 (Fab, V domains shown)
VH: EVQLLESGGGLVQPGGSLRLSCAASGFTFSQYLMMWVRQAPGKGLEWVSSIYPSGGYTSYADSVKGRFTISRDNSKNTLYLQMNSLRAEDTAVYYCARVSTAVADNDYWGQGTLVTVSS
VL: DIQMTQSPSSLSASVRDRVTITCRTSQNINTYLNWYYQAPGRAPKLLIFGVSSLHRGVSSRFSGSGDGTEFTLTISSLQPEDIGTYFCQQSYSSPWTFGQGTKVEIK
notes: HC as printed runs into CH1
B22: M29-E02 (Fab, V domains shown)
VH: EVQLLESGGGLVQPGGSLRLSCAASGFTFSRYPMMWVRQAPGKGLEWVSVIYPSGGDTFYADSVKGRFTISRDNSKNTLYLQMNSLRAEDTAVYYCASGDDYLWEAAVYWGQGTLVTVSS
VL: QSVLTQPPSVSEAPRQRVTISCSGSSSNIGNNAVSWYQQLPGKAPKLLIYYDDLLPSGVSDRFSGSKSGTSASLAISGLRSEDEADYYCAAWDDSLNGFVFGTGTKVTVL
notes: HC as printed runs into CH1
B23: M77-H04 (Fab, V domains shown)
VH: EVQLLESGGGLVQPGGSLRLSCAASGFTFSYYTMIWVRQAPGKGLEWVSGIRSSGGGTRYADSVKGRFTISRDNSKNTLYLQMNSLRAEDTAVYYCAKDGSRYSYGSIYYYYGMDAWGQGTTVTVSS
VL: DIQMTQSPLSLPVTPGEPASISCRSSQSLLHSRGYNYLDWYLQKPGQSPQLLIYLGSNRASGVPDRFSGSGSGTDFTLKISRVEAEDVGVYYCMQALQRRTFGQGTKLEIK
notes: HC as printed runs into CH1

Molecular target: T1, human plasma kallikrein (human, UniProt P03952 20-390; P03952 391-638)
T1 construct: also called pKal; Human pKal
T1 sequence (P03952 20-390, chain 1 of 2): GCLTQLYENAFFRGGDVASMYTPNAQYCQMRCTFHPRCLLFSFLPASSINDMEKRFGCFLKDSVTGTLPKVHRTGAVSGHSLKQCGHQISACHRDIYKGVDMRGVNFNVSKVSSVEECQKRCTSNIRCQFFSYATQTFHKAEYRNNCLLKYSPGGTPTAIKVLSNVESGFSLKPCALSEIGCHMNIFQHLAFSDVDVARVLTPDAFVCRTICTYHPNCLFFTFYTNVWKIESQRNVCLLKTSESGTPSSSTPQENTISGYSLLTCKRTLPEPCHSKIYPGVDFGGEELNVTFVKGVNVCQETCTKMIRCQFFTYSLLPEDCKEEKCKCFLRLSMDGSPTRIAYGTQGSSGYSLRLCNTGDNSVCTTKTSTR
T1 sequence (P03952 391-638, chain 2 of 2): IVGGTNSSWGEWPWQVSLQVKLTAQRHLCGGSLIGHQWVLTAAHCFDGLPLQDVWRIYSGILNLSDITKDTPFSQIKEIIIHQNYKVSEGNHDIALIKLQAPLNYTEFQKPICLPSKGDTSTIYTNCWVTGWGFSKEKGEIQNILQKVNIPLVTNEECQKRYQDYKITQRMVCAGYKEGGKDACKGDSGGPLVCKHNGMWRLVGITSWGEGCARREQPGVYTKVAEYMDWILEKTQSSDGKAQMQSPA
Test: ELISA, biotinylated pKal signal over streptavidin background
Text: Abbreviations used: “T/B” is the ELISA signal obtained using of the “target” (biotinylated plasma kallikrein) divided by the ELISA signal of the “background” (streptavidin); both of which were coated on microtiter plates, “nd” is not determined. The symbol “q” refers to the amber suppressible stop codon (TAG), which is translated as glutamine (Q) in strains of E. coli such as the TG1 cells that were used to express the Fab fragments.

Binder	ELISA (T/B)
B1	10.3
B2	13.4
B3	23.6
B4	12.4
B5	1.5
B6	41
B7	11.8
B8	16.1
B9	4.1
B10	39.9
B11	45.7
B12	40.4
B13	16.4
B14	2.2
B15	6.4
B16	33
B17	19
B18	29.3
B19	41.6
B20	5.2
B21	8.6
B22	2
B23	7.6

Source: patent US20260184815A1 (published 2026)
